Results taken from patent US20200369765A1 (INNATE PHARMA, published 2020).
Residue numbers refer to the chain shown, from its start.

Key:
Human Siglec-9 [1] = molecular target: T1, Human Siglec-9 (human, UniProt Q9Y336 18-463); assay: flow cytometry, CHO Siglec-9 cells, mean n = 2
T1 construct: On transfected CHO cells; also on YTS and KHYG-1 transfectants, primary NK cells and moDC; also called huSiglec-9; CD329
Procedure: Binding of humanized antibodies was tested on CHO cells transfected with human Siglec-9, in a titration experiment by flow cytometry. Cells were incubated 90 minutes at 37° C. in Staining Buffer (SB) with primary antibodies at 10 ug/ml and a series of dilution of 1:10. They were washed three times with SB, then incubated 30 minutes with a goat F(ab′)² Anti-human IgG (Fc) PE. EC₅₀ values (μg/ml) for Siglec-9 expressing cells are shown below.

Human Siglec-9 [2] = molecular target: T1, Human Siglec-9; assay: flow cytometry on fresh purified human NK cells, mean of 4 donors
Procedure: Binding of antibodies on fresh purified human NK cells was tested by titration experiment by flow cytometry. Cells were incubated 1h in Staining Buffer (SB) with primary antibodies at 10 ug/ml and a series of dilution of 1:10. They were washed three times with SB, then incubated 30 min with a Goat F(ab′)² Anti-Human IgG (Fc) PE (Jackson ImmunoResearch). Stainings were acquired on a BD FACS Canto II and analyzed using the FlowJo software. EC₅₀ values are shown in the table below in μg/ml (calculated using a 4-parameter logistic fit).

[3] = molecular target: T2, Human Siglec-9 mutant M16 (human, UniProt Q9Y336 18-463); assay: flow cytometry, HEK293T transfectants; '-' indicates full loss of binding
T2 construct: Expressed on HEK293T cells; also called Mutant 16

Human Siglec-9 mutant M8 = molecular target: T3, Human Siglec-9 mutant M8 (human, UniProt Q9Y336 18-463); assay: as above
T3 construct: Expressed on HEK293T cells; also called Mutant 8

Human Siglec-9 mutant M6 = molecular target: T4, Human Siglec-9 mutant M6 (human, UniProt Q9Y336 18-463); assay: as above
T4 construct: Expressed on HEK293T cells; also called Mutant 6

Siglec-9 Fc protein [4] = molecular target: T5, Siglec-9 Fc protein (human); assay: ELISA, blocking: Siglec-9 Fc captured on protein A, mAb dilution series, then biotinylated polymer Sia2, streptavidin-peroxidase (bottom panel)
T5 construct: Produced in CHO cells; also called human Siglec-9 Fc
Procedure: (§1) Blocking of the interaction between Siglec-7 and -9 and sialylated ligands by anti Siglec-7/9 antibodies was tested on ELISA assays. Siglec proteins were Siglec-7 human Fc and Siglec-9 Human Fc recombinant proteins, and ligands were biotinylated polymers with sialylated trisaccharides (Neu5Aca2-3Galb1-4GcNAcb-PAA-biotin Glycotech #01-077 referred to as “Sia1” and 6′-Sialyllactose-PAA-biotin Glycotech #01-039 (referred to as “Sia2”). Briefly, Protein A was coated on ELISA plates over night at 4° C. After 3 washes and saturation, Siglec-7 Fc and Siglec-9 Fc were added at 0.8 μg/well at RT for 1H30. After 3 washes, mAbs were added at 20 ug/ml and a series of dilution of 1:5. After 3 washes, biotinylated sialylated polymers were added for 3 hours at room temperature. After 3 washes, Streptavidin-Peroxidase (Beckman) was added at 1:1000. […] The absorbance was read at 450 nm.

Siglec-7 Fc protein [5] = molecular target: T6, Siglec-7 Fc protein (human); assay: ELISA, blocking: Siglec-7 Fc captured on protein A, mAb dilution series, then biotinylated polymer Sia2, streptavidin-peroxidase (bottom panel); partial inhibition
T6 construct: Produced in CHO cells; also called human Siglec-7 Fc
Procedure: as §1

Siglec-9 Fc protein [6] = molecular target: T5, Siglec-9 Fc protein; assay: ELISA, blocking: Siglec-9 Fc captured on protein A, mAb dilution series, then biotinylated polymer Sia1, streptavidin-peroxidase (top panel); weak partial inhibition
Procedure: as §1

Siglec-7 Fc protein [7] = molecular target: T6, Siglec-7 Fc protein; assay: ELISA, blocking: Siglec-7 Fc captured on protein A, mAb dilution series, then biotinylated polymer Sia2 (6'-Sialyllactose-PAA-biotin), streptavidin-peroxidase (top panel)
Procedure: as §1

T1 sequence (Q9Y336 18-463): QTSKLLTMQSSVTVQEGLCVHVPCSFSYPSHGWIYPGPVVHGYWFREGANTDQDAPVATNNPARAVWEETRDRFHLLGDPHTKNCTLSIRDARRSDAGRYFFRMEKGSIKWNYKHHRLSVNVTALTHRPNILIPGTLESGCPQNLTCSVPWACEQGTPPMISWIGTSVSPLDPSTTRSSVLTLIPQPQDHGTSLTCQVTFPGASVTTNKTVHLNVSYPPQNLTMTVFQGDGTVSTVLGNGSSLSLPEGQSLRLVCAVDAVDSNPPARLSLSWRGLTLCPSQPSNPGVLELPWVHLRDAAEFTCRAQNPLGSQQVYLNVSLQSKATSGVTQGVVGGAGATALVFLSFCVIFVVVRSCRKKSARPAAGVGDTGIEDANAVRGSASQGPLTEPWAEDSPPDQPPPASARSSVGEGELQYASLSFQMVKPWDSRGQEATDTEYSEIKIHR
T5 sequence (chain, as listed by the source limits assumed): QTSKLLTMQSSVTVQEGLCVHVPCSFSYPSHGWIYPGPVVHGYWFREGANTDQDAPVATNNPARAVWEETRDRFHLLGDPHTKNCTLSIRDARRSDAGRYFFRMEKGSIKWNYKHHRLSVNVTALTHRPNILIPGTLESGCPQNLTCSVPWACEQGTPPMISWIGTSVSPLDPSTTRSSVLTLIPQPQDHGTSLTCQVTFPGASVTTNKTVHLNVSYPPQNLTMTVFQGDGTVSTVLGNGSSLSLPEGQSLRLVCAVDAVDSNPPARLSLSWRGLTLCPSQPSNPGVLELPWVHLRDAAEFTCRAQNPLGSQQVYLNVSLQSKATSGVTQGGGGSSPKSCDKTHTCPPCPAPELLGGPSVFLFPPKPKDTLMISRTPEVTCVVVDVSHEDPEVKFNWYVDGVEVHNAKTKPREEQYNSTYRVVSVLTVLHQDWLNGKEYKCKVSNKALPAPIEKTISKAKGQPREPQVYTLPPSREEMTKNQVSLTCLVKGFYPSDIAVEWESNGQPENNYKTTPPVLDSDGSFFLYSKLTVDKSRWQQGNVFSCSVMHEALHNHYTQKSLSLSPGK
T6 sequence (chain, as listed by the source limits assumed): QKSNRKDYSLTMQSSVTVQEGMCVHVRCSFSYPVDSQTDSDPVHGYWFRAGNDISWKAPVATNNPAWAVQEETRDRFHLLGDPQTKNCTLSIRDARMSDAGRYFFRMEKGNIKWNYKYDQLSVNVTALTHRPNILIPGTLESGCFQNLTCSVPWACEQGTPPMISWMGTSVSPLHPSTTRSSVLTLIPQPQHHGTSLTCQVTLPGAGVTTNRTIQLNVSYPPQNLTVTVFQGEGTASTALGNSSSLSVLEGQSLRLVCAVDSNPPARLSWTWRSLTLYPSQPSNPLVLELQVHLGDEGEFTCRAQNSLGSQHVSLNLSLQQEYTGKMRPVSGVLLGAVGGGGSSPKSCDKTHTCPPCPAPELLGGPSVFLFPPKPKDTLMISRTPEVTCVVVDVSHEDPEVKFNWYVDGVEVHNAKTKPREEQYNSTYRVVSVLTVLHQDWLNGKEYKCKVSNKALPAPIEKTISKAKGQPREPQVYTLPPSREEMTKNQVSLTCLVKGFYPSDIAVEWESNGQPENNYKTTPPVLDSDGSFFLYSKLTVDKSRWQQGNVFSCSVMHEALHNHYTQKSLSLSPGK
T2 sequence (Q9Y336 other isoform, or with tags, fused parts or gaps mutant): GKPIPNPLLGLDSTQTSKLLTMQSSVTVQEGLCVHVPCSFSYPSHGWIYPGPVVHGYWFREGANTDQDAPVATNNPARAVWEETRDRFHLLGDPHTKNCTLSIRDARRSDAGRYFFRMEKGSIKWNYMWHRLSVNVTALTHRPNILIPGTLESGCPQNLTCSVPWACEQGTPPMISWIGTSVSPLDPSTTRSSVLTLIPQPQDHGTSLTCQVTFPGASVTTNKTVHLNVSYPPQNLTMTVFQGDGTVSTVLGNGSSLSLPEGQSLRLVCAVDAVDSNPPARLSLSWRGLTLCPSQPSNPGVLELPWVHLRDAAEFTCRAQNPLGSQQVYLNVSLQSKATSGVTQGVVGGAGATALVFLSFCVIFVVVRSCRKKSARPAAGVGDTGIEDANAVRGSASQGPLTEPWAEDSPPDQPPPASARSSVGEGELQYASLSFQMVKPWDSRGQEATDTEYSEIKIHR
T3 sequence (Q9Y336 other isoform, or with tags, fused parts or gaps mutant): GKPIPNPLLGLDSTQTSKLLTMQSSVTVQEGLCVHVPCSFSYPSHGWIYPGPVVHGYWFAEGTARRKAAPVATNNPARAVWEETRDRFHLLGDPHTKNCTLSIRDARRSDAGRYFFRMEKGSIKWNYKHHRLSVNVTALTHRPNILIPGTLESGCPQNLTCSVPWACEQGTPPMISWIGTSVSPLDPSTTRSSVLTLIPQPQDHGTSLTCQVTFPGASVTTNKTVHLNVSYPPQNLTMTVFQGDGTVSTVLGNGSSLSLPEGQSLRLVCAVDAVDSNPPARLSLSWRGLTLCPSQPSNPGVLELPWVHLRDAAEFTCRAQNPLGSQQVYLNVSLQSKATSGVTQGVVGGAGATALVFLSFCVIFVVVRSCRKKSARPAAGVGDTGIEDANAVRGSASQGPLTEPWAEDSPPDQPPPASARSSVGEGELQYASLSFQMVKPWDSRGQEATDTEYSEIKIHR
T4 sequence (Q9Y336 other isoform, or with tags, fused parts or gaps mutant): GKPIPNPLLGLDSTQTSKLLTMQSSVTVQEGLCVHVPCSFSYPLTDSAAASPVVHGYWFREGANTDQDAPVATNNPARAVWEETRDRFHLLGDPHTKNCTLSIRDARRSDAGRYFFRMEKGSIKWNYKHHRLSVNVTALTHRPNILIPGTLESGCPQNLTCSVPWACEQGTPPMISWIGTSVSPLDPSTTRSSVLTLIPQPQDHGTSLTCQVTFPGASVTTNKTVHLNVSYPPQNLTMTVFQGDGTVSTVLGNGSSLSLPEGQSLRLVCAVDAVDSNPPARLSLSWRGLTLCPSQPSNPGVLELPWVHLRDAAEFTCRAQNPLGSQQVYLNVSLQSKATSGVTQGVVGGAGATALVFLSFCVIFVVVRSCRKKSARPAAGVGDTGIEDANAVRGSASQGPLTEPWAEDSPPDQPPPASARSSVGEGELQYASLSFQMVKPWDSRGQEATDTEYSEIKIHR

B1: mAbA (antibody, human IgG1, V domains shown)
VH: QVQLQQPGAELVKPGSPVKLSCKASYFTFTSYWMHWVRQRPGQGLEWIGEINPSNGHTNYNEKFESKATLTVDRSSSTAYMQLSSLTSEDSAVFYCANGVESYDFDDALDYWGQGTSVTVSS
VL: DIQMTQTTSSLSASLGDRVTISCRASQDINNYLNWYQQKPDGTIKLLIYYTSRLHSGVPSRFSGSGSGTDYSLTINNLEQEDIATYFCQQGNTLPFTFGGGTKLEIK
Q: With B1 as the binder, how does the EC50 (Human Siglec-9 [1]) read?
A: 0.03 µg/mL

Q: And the EC50 (Human Siglec-9 [2])?
A: 0.08 µg/mL

Q: Does B1 bind [3]?
A: no binding

B2: mAbC (antibody, human IgG1, V domains shown)
VH: QIQLVQSGPELKKPGETVKISCKASGYTFTNYEMNWVKEAPGKGLKWMGWINTYTGESTYADDFKGRFAFSLETSASTVYLQINNLKDEDVATYFCVRDDYGRSYGFAYWGQGTLVTVSA
VL: NIVLTQSPASLTVSLGQRANISCRASESVDSYGNSFMHWYQQKPGQPPKLLIYLASKLESGVPARFSGSGSRTDFTLTIDPVETDDAATYYCHQNNEDPPWTFGGGTKLEIK
Q: With B2 as the binder, how does the EC50 (Human Siglec-9 [2]) read?
A: 0.09 µg/mL

Q: Does B2 bind (Human Siglec-9 mutant M8)?
A: no binding

B3: mAbD (antibody, human IgG1, V domains shown)
VH: QIQLVQSGPELKKPGETVKISCKASGYTFTDYSMHWVKQAPGKGLKWMGWIITETGEPTYADDFRGRFAFSLETSANTAYLQINNLKNEDTATYFCARDFDGYWGQGTTLTVSS
VL: DILMTQSPASLSASVGETVTITCRASENIYSYLAWYQQKRGKSPQFLVYNAKTLTEGVPSRFRGSGSGTQFSLKINSLQPEDFGTYYCQHHYGFPWTFGGGTKLEIK
Q: B3 was tested. Which EC50 (Human Siglec-9 [1]) did it give?
A: 0.036 µg/mL

Q: Does B3 bind (Human Siglec-9 mutant M6)?
A: no binding

B4: mAb1 (antibody, human IgG1, V domains shown)
VH: DVQLQESGPGLVKPSQSLSLTCTVTGYSITGGFAWNWIRQFPGNTLEWMGYIGYGGSTSYNPSLNSRISITRDTSKNHFFLQFNSVTTDDSATYYCARGDYLFAYWGQGTLVTVSA
VL: DIVMTQSHKFMSTSVGDRVSITCKASQDVNTAVAWYQQKPGQSPKLLIYSASYRYTGVPDRFTGSGSGTDFTFTISSVQAEDLAVYYCQQHYSTPRTFGGGTKLEIK
Q: Which results are given for B4?
A: IC50 (read off the curve) (Siglec-9 Fc protein [4]): ~1 µg/mL; IC50 (read off the curve) (Siglec-7 Fc protein [5]): ~4 µg/mL; IC50 (read off the curve) (Siglec-9 Fc protein [6]): ~2 µg/mL

B5: mAb2 (antibody, human IgG1, V domains shown)
VH: B4 VH with D1E, D89E
VL: B4 VL
Q: What does the source list for B5?
A: IC50 (read off the curve) (Siglec-9 Fc protein [4]): ~1 µg/mL; IC50 (read off the curve) (Siglec-7 Fc protein [5]): ~4 µg/mL; IC50 (read off the curve) (Siglec-9 Fc protein [6]): ~2 µg/mL

B6: mAb6 (antibody, human IgG1, V domains shown)
VH: EIQLQQSGPELEKPGASVKISCKASGYSFSDYNMNWVKQSNGKSLEWIGNIDPYYGATSYNQRFKGKATLTVDKSSSTAYMQLKSLTSEDSAVYYCARGDSLFAYWGQGTLVTVSA
VL: DIVMTQSQEFMSTSLGDRVSVTCKASQNVGTNVAWYQQKPGQSPKALLYSASSRYSGVPDRFTGSGSGTDFTLTINNMQSEDLAEYFCQQYITYPYTFGGGTKLEIK
Q: Does B6 bind (Siglec-7 Fc protein [7])?
A: binds

B7: mAbB (antibody, human IgG1, V domains shown)
VH: QVQLQQPGAELVKPGASVKLSCKASVYTFTSYWMHWVKQRPGQGLEWIGEINPSNGHTNYNEKFKTKAKLTVDKSSSTAYMQLSSLTSEDSAVYFCANGVETYDFDDAMDYWGQGTSVTVSS
VL: B1 VL with I44V, Y50F, N76S, N92D, L94F
Q: B7 was tested. Which EC50 (Human Siglec-9 [2]) did it give?
A: 0.1 µg/mL

Q: Does B7 bind [3]?
A: no binding

B8: mAbE (antibody, human IgG1, V domains shown)
VH: DVQLVESGGGLVQPGGSRKLSCAASGFTFSTFGMHWVRQAPEKGLEWVAYISSGSNAIYYADTVKGRFTISRDNPKNTLFLQMTSLRSEDTAMYYCASPGYGAWFAYWGQGTLVTVSA
VL: ENVLTQSPAIMSASPGEKVTMTCRASSSVSSAYLHWYQQKSGASPKLWIYSTSNLASGVPARFSGSGSGTSYSLTISSVEAEDAATYYCQQYSAYPYTFGGGTKLEIK
Q: How did the EC50 (Human Siglec-9 [2]) turn out when B8 was run?
A: 0.01 µg/mL

B9: mAbF (antibody, human IgG1, V domains shown)
VH: QVQLQQSGPEVVRPGVSVKISCKGSGYTFTDYSMHWVKQSHAKSLEWIGVISTYNGNTNYNQKFKGKATMTVDKSSSTAYMELARLTSEDSAIYYCARRGYYGSSSWFGYWGQGTLVTVSA
VL: DIVMTQSQKFMSTSVGDRVSVTCKASQNVGTDVAWYQQKPGQSPEALIYSASYRYSGVPDRFTGSGSGADFTLTISNVQSEDLAEYFCQQYNSFPYTFGGGTKLEIK
Q: For B9, which EC50 (Human Siglec-9 [2]) is on record?
A: 0.3 µg/mL
